Laboratory results published in publication PMC4791852 (mBio, 2016).

Target: T1, Ebola virus GPCL trimer (thermolysin-cleaved, purified GP ectodomain) (Ebola virus (Zaire ebolavirus); GP1 …)
T1 chain 1: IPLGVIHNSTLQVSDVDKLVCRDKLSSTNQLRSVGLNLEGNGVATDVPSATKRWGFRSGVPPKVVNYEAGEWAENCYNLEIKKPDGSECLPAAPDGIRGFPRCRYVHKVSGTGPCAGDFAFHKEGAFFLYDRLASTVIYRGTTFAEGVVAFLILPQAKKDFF
T1 chain 2: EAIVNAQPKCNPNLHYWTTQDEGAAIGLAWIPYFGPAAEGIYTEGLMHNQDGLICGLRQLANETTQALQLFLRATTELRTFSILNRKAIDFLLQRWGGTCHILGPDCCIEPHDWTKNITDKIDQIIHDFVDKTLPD
Assay: crystal structure

B1: KZ52 Fab (Fab, V domains shown)
VH: EVQLLESGGGLVKPGGSLRLSCAASGFTLINYRMNWVRQAPGKGLEWVSSISSSSSYIHYADSVKGRFTISRDNAENSLYLQMNSLRAEDTAVYYCVREGPRATGYSMADVFDIWGQGTMVTVSS
VL: not shown
binding result: binds
